# According to patent US20260258388A1 (REGENTS OF THE UNIVERSITY OF MICHIGAN, published 2026):
# T1: human FcγRIIA (human, UniProt P12318 34-317)
# T1 construct: whole, on cells; also called hFcγRIIA; platelet FcγRIIA
# T1 sequence (looked up): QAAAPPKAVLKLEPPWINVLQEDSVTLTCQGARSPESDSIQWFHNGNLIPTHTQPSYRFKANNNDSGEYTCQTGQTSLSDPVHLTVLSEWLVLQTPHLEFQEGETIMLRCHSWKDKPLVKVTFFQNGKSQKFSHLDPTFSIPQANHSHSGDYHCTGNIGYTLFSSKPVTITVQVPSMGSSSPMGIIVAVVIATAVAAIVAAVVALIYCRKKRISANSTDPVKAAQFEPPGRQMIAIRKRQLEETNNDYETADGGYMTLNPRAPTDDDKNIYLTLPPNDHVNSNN
# B1: scIV.3 (single-chain variable fragment of IV.3, scIV.3-LPETGG) (scFv)
# scFv: QVQLVQSGAEVKKPGASVKVSCKASGYTFTNYGMNWVRQAPGQRLEWMGWLNTYTGESWYPDDFKGRVTITRDTSASTAYMELSSLRSEDTAVYYCARGDYGYDDPLDYWGQGTLVTVSSGAGGSGGGGSGGGGSGGGGSDIVMTQSPLSLPVTPGEPASISCRSSKSLLHTNQNTYLHWFLQKPGQSPQLLIYRMSVLASGVPDRFSGSGSGTDFTLKISRVEAEDVGVYYCMQHLEYPLTFGQGTKLEIKRGSSSGLPETGGGHHHHHH
# notes: also called His-tagged scIV.3; IV.3 scFv
# B2: scIV.3-LPETGG-FAM (scFv)
# scFv: QVQLVQSGAEVKKPGASVKVSCKASGYTFTNYGMNWVRQAPGQRLEWMGWLNTYTGESWYPDDFKGRVTITRDTSASTAYMELSSLRSEDTAVYYCARGDYGYDDPLDYWGQGTLVTVSSGAGGSGGGGSGGGGSGGGGSDIVMTQSPLSLPVTPGEPASISCRSSKSLLHTNQNTYLHWFLQKPGQSPQLLIYRMSVLASGVPDRFSGSGSGTDFTLKISRVEAEDVGVYYCMQHLEYPLTFGQGTKLEIKR
# modifications: FAM-containing peptide attached site-specifically to the C-terminal sortag (LPET) by sortase
# notes: Single chain variable fragment of monoclonal antibody IV.3, C-terminally modified with a FAM peptide by sortase; also called scIV.3-FAM; FAM-conjugated scIV.3; not shown: short semi-rigid linker, sortag LPET and the FAM-containing peptide joined by sortase
# B3: scIV.3-IdeS (scFv)
# chain: QVQLVQSGAEVKKPGASVKVSCKASGYTFTNYGMNWVRQAPGQRLEWMGWLNTYTGESWYPDDFKGRVTITRDTSASTAYMELSSLRSEDTAVYYCARGDYGYDDPLDYWGQGTLVTVSSGAGGSGGGGSGGGGSGGGGSDIVMTQSPLSLPVTPGEPASISCRSSKSLLHTNQNTYLHWFLQKPGQSPQLLIYRMSVLASGVPDRFSGSGSGTDFTLKISRVEAEDVGVYYCMQHLEYPLTFGQGTKLEIKRGSSSGLPETGGGSSDSFSANQEIRYSEVTPYHVTSVWTKGVTPPANFTQGEDVFHAPYVANQGWYDITKTFNGKDDLLCGAATAGNMLHWWFDQNKDQIKRYLEEHPEKQKINFNGEQMFDVKEAIDTKNHQLDSKLFEYFKEKAFPYLSTKHLGVFPDHVIDMFINGYRLSLTNHGPTPVKEGSKDPRGGIFDAVFTRGDQSKLLTSRHDFKEKNLKEISDLIKKELTEGKALGLSHTYANVRINHVINLWGADFDSNGNLKAIYVTDSDSNASIGMKKYFVGVNSAGKVAISAKEIKEDNIGAQVLGLFTLSTGQDSWNQTNHHHHHH
# notes: also called IV.3-IdeS conjugate; His-tagged scIV.3-IdeS
# Columns and labels:
# [1] = biological target: Ly76 (Ter119 antigen) on mouse red blood cells (mouse); assay: binding assay using mouse RBC ghosts
# [2] = biological target: Ly76 (Ter119 antigen) on mouse red blood cells (mouse); assay: cell-based or functional assay
# [3] = biological target: Ly76 (Ter119 antigen) on mouse red blood cells (mouse); assay: binding assay on mouse RBCs
# [4] = biological target: Ly76 (Ter119 antigen) on mouse red blood cells (mouse); assay: 125I-labelled protein injected in mice; radioactivity in RBC pellet vs plasma 1 hour after injection
# [5] = biological target: T1, human FcγRIIA; assay: flow cytometry, human platelets, His-tagged protein detected with Alexa 488 anti-His antibody
# [6] = biological target: T1, human FcγRIIA; assay: flow cytometry, washed platelets of transgenic mice expressing human FcγRIIA
# [7] = biological target: T1, human FcγRIIA; assay: flow cytometry, THP-1 cells
# [8] = biological target: T1, human FcγRIIA; assay: flow cytometry, human platelets
molecule,measurement,setting,value
Ter119 scFv,Kd,[1],30 nM
Ter119 scFv-IdeS fusion protein,inhibition of agglutination of mouse RBCs loaded with Ter119 mAb,[2],1.25 nM
same,Kd,[3],25 nM
same,percent bound to RBCs in blood,[4],> 98%
same,Kd,[1],26 nM
B1,Kd,[5],0.9 nM
B2,Kd,[6],0.27 nM
same,Kd,[7],11 nM
same,Kd,[8],1 nM
B3,Kd,[5],1.3 nM
